The results in this text go back to PMC8964761.

Experiment [1] has as its target dimeric suPAR (human) (UniProt Q03405). The experiment can be described thus: SPR; Biacore T200; suPAR monomer or dimer captured on anti-uPAR antibody immobilised on a CM5 chip; ATF (0.14-33.3 nM) or scuPA (0.54-44.4 nM) flowed over; 10 mM HEPES, 150 mM NaCl, 3 mM EDTA, 0.005% P-20, pH 7.4, 20 °C; 1:1 Langmuir fit.
For experiment [2] the target is unchanged. The experiment can be described thus: SEC; suPAR dimer mixed with excess ATF, 30 min at room temperature; complex purified on Superdex 200 10/300 (20 mM Tris pH 7.4, 150 mM KCl) and quantified by SDS-PAGE. Background: Size exclusion chromatography separates by hydrodynamic size, large species first.
The next experiment concerns the target FITC conjugated ATF. The experiment can be described thus: high-content fluorescence imaging of FITC-ATF on 293T cells (FITC/mRuby3 intensity ratio). The settings on record: FITC-ATF for 1 h; uPAR-mRuby3 expressing 293T cells; parent: est. 0.41; read off a plot.

Sequence of UniProt Q03405 (Q03405 23-299): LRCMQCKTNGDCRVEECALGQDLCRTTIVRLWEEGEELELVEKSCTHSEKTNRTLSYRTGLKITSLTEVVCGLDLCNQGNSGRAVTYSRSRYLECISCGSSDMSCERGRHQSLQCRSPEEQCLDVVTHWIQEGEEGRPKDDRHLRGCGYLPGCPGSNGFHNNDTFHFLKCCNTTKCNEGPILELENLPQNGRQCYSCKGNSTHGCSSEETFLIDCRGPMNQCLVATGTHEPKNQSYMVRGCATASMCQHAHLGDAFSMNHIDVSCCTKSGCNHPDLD

With “amino terminal fragment of uPA (ATF) (domain or fragment)”, the Kd with dimeric suPAR (human) [1] was determined as 0.672 nM. The stoichiometry N (ATF molecules per uPAR dimer) with dimeric suPAR (human) [2] came out at 2.

For the substance “uPAR^WT fused with mRuby3 (suPAR-mRuby3-GPI) (from UniProt Q03405) E49P”, the response with FITC conjugated ATF amounted to 0.43.

With “uPAR^WT fused with mRuby3 (suPAR-mRuby3-GPI) (from UniProt Q03405) H47C; N259C”, the response with FITC conjugated ATF is 0.27.

By Kd is commonly meant the equilibrium constant for the complex coming apart. Lower therefore signals higher affinity.
